Measured values published in US20220204643A1 (published 2022).

Tests used:
[1] = target: aldo-keto reductase family 1 member B, transcript variant 1 (human, UniProt P15121 2-316); assay: protein array
[2] = target: T1, RAD1 checkpoint DNA exonuclease, transcript variant 1 (human, UniProt O60671 1-282); assay: protein array
T1 construct: on protein array
T1 sequence: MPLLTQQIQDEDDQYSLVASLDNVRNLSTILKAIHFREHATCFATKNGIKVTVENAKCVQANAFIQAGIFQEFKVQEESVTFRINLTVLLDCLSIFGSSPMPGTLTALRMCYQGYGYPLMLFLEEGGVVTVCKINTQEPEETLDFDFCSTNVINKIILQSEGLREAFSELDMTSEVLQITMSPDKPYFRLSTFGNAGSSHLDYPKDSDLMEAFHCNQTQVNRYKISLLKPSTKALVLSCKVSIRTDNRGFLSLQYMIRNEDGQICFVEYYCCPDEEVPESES

[3] = target: T2, Microtubule associated scaffold protein 1 (human, UniProt Q9ULD2 875-1270); assay: protein array
T2 construct: on protein array; also called MTUS1
T2 sequence: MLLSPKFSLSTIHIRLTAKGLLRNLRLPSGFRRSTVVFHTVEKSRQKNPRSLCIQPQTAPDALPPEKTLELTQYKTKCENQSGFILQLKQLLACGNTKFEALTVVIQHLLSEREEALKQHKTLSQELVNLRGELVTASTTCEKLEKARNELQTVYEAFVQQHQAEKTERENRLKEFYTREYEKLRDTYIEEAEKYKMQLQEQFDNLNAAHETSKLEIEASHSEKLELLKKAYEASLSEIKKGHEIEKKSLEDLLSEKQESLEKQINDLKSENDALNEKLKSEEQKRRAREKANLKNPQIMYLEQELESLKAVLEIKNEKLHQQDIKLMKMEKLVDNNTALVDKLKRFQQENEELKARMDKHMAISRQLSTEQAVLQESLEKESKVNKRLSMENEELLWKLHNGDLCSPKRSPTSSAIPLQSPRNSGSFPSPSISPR

[4] = target: T3, checkpoint kinase 2, transcript variant 3 (human); assay: protein array
T3 construct: on protein array; also called CHEK2
T3 chain: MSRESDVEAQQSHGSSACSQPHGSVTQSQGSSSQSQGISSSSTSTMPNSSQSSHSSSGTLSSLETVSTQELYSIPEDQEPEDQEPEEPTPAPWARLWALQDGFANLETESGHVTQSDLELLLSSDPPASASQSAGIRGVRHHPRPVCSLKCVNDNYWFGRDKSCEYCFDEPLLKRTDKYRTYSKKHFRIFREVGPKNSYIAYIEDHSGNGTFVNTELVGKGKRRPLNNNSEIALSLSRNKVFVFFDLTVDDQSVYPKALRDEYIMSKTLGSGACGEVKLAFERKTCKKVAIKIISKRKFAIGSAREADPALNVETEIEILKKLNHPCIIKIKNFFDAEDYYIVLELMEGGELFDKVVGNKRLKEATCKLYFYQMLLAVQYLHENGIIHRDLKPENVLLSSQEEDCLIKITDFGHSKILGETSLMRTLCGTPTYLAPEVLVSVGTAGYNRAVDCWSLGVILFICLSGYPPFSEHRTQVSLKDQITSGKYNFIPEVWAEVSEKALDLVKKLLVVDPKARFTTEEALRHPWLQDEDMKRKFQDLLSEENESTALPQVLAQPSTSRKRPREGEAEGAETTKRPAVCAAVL

[5] = target: T4, ankyrin repeat domain 53, transcript variant 2 (human); assay: protein array, with experimental replicate
T4 construct: on protein array; also called ANKRD53
T4 chain: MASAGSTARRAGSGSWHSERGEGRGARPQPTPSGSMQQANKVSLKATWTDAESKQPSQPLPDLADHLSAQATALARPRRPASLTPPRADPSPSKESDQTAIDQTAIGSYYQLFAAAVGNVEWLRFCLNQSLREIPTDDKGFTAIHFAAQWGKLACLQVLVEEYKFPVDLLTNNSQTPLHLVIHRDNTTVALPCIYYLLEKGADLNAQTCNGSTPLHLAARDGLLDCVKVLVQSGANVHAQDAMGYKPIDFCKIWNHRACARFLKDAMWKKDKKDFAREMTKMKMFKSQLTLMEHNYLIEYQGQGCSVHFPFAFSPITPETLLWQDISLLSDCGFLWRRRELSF

[6] = target: T5, dynein axonemal assembly factor 3, transcript variant 3 (human, UniProt Q8N9W5 1-541); assay: protein array
T5 construct: on protein array; also called DNAAF3
T5 sequence: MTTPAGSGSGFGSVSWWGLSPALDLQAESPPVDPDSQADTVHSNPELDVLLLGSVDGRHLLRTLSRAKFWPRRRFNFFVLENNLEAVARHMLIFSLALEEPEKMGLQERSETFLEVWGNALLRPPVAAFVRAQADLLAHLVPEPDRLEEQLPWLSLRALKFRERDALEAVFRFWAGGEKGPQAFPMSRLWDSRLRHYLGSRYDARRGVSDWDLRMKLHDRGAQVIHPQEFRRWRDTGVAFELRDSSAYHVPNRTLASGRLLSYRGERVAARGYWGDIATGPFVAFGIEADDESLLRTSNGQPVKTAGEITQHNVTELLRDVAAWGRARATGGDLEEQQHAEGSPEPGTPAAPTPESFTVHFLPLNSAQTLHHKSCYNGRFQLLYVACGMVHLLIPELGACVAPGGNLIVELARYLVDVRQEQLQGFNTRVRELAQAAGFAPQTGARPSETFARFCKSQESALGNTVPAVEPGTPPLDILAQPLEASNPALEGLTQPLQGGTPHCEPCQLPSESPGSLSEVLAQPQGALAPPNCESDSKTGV

[7] = target: T6, CDP-diacylglycerol synthase 1 (human, UniProt Q92903 1-461); assay: protein array
T6 construct: on protein array; also called CDS1
T6 sequence: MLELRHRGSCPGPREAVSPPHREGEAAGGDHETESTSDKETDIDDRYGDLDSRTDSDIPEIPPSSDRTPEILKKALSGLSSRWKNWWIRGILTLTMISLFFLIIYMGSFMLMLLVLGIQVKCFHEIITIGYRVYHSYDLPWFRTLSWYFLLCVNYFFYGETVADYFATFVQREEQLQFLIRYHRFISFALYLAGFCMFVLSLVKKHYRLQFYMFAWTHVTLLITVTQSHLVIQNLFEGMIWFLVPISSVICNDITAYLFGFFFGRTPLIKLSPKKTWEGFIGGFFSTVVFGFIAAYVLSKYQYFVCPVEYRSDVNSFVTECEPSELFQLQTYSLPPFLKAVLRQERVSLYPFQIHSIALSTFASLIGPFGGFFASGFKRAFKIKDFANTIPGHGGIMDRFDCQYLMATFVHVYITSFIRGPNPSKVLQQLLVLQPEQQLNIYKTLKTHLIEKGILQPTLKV

[8] = target: T7, coiled-coil domain containing 102A, transcript variant X1 (human, UniProt Q96A19 1-550); assay: protein array
T7 construct: on protein array; also called CCDC102A
T7 sequence (Q96A19 other isoform, or with tags, fused parts or gaps mutant limits assumed): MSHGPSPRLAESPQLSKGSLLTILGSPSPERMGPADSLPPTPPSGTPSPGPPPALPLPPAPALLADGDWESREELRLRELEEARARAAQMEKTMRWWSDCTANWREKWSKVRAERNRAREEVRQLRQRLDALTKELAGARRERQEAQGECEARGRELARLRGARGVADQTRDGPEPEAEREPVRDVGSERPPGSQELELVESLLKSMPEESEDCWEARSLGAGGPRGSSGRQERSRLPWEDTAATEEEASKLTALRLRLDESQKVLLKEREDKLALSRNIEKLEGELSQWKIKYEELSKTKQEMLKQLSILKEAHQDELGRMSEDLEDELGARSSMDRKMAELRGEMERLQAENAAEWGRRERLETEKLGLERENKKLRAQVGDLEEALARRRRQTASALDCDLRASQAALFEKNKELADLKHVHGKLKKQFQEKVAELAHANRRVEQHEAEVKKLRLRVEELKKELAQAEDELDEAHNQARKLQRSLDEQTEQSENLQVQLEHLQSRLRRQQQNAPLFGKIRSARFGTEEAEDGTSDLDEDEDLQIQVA

[9] = target: T8, NCCRP1, F-box associated domain containing (human, UniProt Q6ZVX7 1-275); assay: protein array
T8 construct: on protein array
T8 sequence: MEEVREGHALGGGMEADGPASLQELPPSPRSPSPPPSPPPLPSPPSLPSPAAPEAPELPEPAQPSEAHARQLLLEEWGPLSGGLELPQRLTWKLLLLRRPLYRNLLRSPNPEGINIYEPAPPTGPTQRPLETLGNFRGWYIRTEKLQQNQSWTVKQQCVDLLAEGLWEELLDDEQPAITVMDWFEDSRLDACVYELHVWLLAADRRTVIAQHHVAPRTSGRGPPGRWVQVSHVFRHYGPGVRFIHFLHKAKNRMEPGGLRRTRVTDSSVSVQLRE

[10] = target: T9, RNA binding motif protein 47, transcript variant X10 (human, UniProt A0AV96 1-593); assay: protein array
T9 construct: on protein array; also called RBM47
T9 sequence: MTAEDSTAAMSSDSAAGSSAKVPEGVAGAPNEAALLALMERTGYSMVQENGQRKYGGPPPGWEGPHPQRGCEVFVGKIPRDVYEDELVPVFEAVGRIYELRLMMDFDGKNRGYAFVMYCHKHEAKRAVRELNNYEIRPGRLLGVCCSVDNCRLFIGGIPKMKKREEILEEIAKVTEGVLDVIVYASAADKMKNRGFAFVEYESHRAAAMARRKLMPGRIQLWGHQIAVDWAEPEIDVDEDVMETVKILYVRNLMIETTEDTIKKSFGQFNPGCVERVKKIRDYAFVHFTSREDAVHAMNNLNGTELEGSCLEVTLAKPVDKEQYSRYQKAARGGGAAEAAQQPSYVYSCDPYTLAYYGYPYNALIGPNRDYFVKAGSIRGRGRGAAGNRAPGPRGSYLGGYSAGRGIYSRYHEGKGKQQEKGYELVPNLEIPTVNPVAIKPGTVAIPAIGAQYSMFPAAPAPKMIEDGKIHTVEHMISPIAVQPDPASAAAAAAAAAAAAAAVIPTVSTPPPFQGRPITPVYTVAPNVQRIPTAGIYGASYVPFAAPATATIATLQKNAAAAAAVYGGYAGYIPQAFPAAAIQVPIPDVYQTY

[11] = target: T10, S100 calcium binding protein B (human, UniProt P04271 2-92); assay: protein array, with experimental replicate
T10 construct: on protein array; also called S100B
T10 sequence: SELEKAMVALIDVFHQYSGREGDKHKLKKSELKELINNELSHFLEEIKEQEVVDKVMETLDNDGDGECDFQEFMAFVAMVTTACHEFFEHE

B1: TKIC1006 (antibody, V domains shown)
VH: QVQLVQSGAEVKKPGSSVKVSCKTSGGTFSSYTISWVRQAPGQGPEWMGRIIPILNITNYAQKFQGRVTITADKSTSTTYMEMGSLRSEDTAVYFCARSFYGSGLQWGQGTLVTVSS
VL: EIVLTQSPGTLSLSPGERATLSCRASQSVSSSYLVWYQQKAGQAPRLLIYGASSRATGISDRFSGSGSGTDFTLTISRLEPEDFAVYYCQHFRSSPPTYTFGQGTKLEIKR
notes: VH/VL tied via antigen in summary, not by name in this stretch
Question: Does B1 bind [1]?
Answer: binds

B2: THNS1006 (antibody, V domains shown)
VH: QVQLVESGGGVVQPGRSLRLSCAASGFTFSSYGMHWVRQAPGKGLEWVAIISYDGSNKYYADSVKGRFTISRDKSKNTLYLQMNSLRAEDTAVYYCAKSKGNYRDAMDVWGQGTTVTVSS
VL: SYVLTQPPSVSVAPGQTARITCGGNNIGSKSVHWYQQKPGQAPVLVVYDDSDRPSGIPERFSGSNSGNTATLTISRVEAGDEADYYCQVWDSSSDPWVFGGGTKLTVLG
notes: VH/VL only
Question: Does B2 bind [2]?
Answer: binds

Question: Does B2 bind [3]?
Answer: binds

B3: TKIC10013 (antibody, V domains shown)
VH: EVQLVESGGGLVQPGGSLRLSCAASGFTFNNYWMHWVRQAPGKGLVWVSRISSDGSTTASADSVKGRFTISRDNAKNTLFLQMNSLRAEDTAVYYCAREGAPDDYGDSGTAFDIWGQGTTVTVSS
VL: DIQLTQSPSFLSASVGDRVTITCRASQDISSFLAWYQQKPGKAPDLLIYAASTLQSGVPSRFSGSGSGTEFTLTISSLQPEDFAAYYCQHLTSFPYTFGQGTKLEIKR
notes: as for B1
Question: Does B3 bind [4]?
Answer: binds

B4: TKIC10019 (antibody, V domains shown)
VH: QLQLQESGPGLVKPSETLSLTCTVSDVSIISSFYYWGWIRQPPGKGLEWIGSVYYSGSTSYNPSLKSRVTISADTSKAHFSLNLRSVTAADTAVYYCVSRGPLGGAAAGPDYWGQGALVIVSS
VL: VSSELTQDPAVSVALGQTVRITCQGDSLRSYYATWYQQKPGQAPLLVIFDKDKRPSGIPDRFSGSSSGNTASLTITGAQPEDEAVYYCNSRDSSAHDHLLFGGGTTLTVLG
notes: as for B1
Question: Does B4 bind [5]?
Answer: binds

B5: THNS1014 (antibody, V domains shown)
VH: HVQLLQSGPGLVKPSQTLSLTCAISGDSVSSTSGAWNWIRQSPSRGLEWLGRTYYRSQWMNDYAESVRSRITINPDTSKNQFSLQLKSVTPEDTAVYYCTRGWAFTSSDWGQGTQVTVSS
VL: EIVLTQSPGTLSLSPGERATLSCRASQSFDGKSLAWYQQKPGQTPRLLVYGASSRATGIPDRFGGSGSGTDFTLTISRLESEDFAVYFCQQYAYVPITFGQGTRLERKR
notes: VH/VL only
Question: What does the source list for B5?
Answer: binding result [6]: binds; binding result [7]: binds

B6: THNS1003 (antibody, V domains shown)
VH: VVQLVESGGGLVQPGGSLRLSCAASGFTFNNYEMNWVRQAPGKGLEWVSYISSSGSTIYYADSVKGRFTISRDNAKNSLYLQMNSLRAEDTAVYYCARQMVTTRGYWGQGTLVTVSS
VL: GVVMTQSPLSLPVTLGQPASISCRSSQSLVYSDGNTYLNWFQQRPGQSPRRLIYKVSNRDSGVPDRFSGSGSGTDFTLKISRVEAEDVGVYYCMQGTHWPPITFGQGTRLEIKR
notes: VH/VL only
Question: Does B6 bind [8]?
Answer: binds

Question: Does B6 bind [9]?
Answer: binds

B7: THNS1004 (antibody, V domains shown)
VH: EVQLVESGGGLVQPGGSLRLSCAASGFTFSSNWMSWVRQAPGKGLEWVANIKEDGSEKYYVDSVKGRFTIFRDNAKNSLYLQMNSLRAEDTAVYYCARVPSRYGRSRGAFDIWGQGTMVTVSS
VL: DIQMTQSPSSLSASVGDRVTITCRASQSISSYLNWYQQKPGKAPKLLIYAASSLQSGVPSRFSGSGSGTDFTLAISSLQPEDFATYYCHQTYSTRLTFGGGTEVEIKR
notes: VH/VL only
Question: Does B7 bind [10]?
Answer: binds

B8: TKIC10012 (antibody, V domains shown)
VH: VVQLVESGGGLVQPGGSLRLSCAASGFSFSTYWMSWVRQAPGKGLEWVANIKQDGSEKHYVDSVKGRFTISRDNAKNSLYLQMNSLRAEDTAMYYCARRAYSFDYWGQGTLVTVSS
VL: DIQMTQSPSTLSASVGDKVTITCRASQSVGSWLAWYQQKPGKAPKLLISVASSLESGVPSRFSGSGSGTEFTLTVSSLQPDDFATYYCQQYNSYSWTFGQGTKVELKR
notes: as for B1
Question: Does B8 bind [11]?
Answer: binds
